This is an account of results in patent US20180346523A1.

The target of this experiment is NLS-PpsR2-VP16 (Rhodopseudomonas palustris; H. simplex). The experiment in a line: cell-based or functional assay.

Some results are limits rather than exact numbers.

For “BphP1-mCherry-TetR (from UniProt P04483 1-207)”, the EGFP signal, illuminated over dark-treated cells (pTRE-Tight-EGFP reporter, flow cytometry) was above 27 fold; the Rluc8 activation with 740 nm light against 470 nm light in cultured HeLa cells turned out to be 18 fold; the Rluc8 light-to-dark signal ratio in mouse liver after hydrodynamic transfection (pKA-207I10), 48 h was 5.7 fold; the Rluc8 signal, 740 nm illuminated mice over mice in darkness, HeLa cells injected subcutaneously, 48 h worked out at 32 fold. Moreover, the SEAP level, 740 nm light over darkness, after 12 h amounted to 3 fold; the SEAP level, 740 nm light over darkness, after 48 h (pTRE-Tight-SEAP reporter, HeLa) worked out at 40 fold; the SEAP reporter expression against the PhyB-PIF6 system, same reporter plasmid stood at 2 fold; the decrease of SEAP production by 12 h of 636 nm light after 12 h of 740 nm light, against cells kept in darkness was 2.3 fold. For the same substance, the half-time of SEAP accumulation under 740 nm light was determined as 18 h and the rate of SEAP decrease in darkness after 636 nm illumination, against darkness alone was 2 fold.
